In US20130053541A1, “METHODS FOR DISCOVERING MOLECULES THAT BIND TO PROTEINS” (LYNNTECH, INC., priority 2011, published 2013):
Where no end group is shown, it is not given here.

T1: native human ESRRG protein (Estrogen-receptor related receptor gamma) (human, UniProt P62508 229-458, limits assumed)
T1 construct: the screened protein is called 'native human ESRRG protein'; also called ESSRG; ERRγ
T1 sequence (looked up): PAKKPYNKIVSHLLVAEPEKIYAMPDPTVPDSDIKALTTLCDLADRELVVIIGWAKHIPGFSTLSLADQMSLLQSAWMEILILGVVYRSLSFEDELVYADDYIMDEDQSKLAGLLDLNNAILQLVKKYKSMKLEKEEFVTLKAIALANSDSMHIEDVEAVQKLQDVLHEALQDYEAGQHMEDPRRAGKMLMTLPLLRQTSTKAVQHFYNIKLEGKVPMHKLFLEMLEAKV


target: T1, native human ESRRG protein …; assay: peptide microarray, Iteration 1; bound ESRRG detected with fluorescent anti-ESRRG mAb
Description: (§1) Screening was carried out typically by hybridization of the protein (1 μg/mL) against the array for 1 h at 4° C.; detection of bound protein was carried out using a fluorescently labeled anti-ESRRG mAb. (Direct labeling of ESRRG and alternative detection strategies are equally valid).
Daughter candidate ligands and their new Tier 3 and/or Tier 1 based combinations were synthesized in situ on an addressable peptide microarray and screened against native human ESRRG protein in order to determine sequences that bind to this protein. Bound protein was detected by a fluorescently labeled anti-ESRRG mAb. […] Excess (100×) competing biological matrices (human serum, HSA/BSA or bacterial protein extract) were used as backgrounds to select for specific ligands to the protein. Other competing proteins can be added to background for specificity selection and directed evolution of ligands.

Row | Binder | Sample B (Probe) Signal | log2 (Sample B/Sample A)
1 | Ac-ANNSLLLH | 1320 fluorescence intensity units | 6.51
2 | Ac-ANNIQLLH | 806 fluorescence intensity units | 8.57
3 | Ac-ANNLWLLH | 1610 fluorescence intensity units | 5.26
4 | Ac-ANNSKLLH | 1010 fluorescence intensity units | 5.42
5 | Ac-ANNFLLLH | 1620 fluorescence intensity units | 5.13
6 | Ac-ANNSSLLH | 1150 fluorescence intensity units | 7.29
7 | Ac-ANNLSLLH | 1220 fluorescence intensity units | 5.82
8 | Ac-ANNLKLLH | 1670 fluorescence intensity units | 4.88
9 | Ac-ANNLQLLH | 1540 fluorescence intensity units | 5.03
10 | Ac-ANNSQLLH | 955 fluorescence intensity units | 9.9
11 | Ac-ANNIWLLH | 1010 fluorescence intensity units | 5.05
12 | Ac-ANNILLLH | 1090 fluorescence intensity units | 6.34

Results, then the binder that gave them:

Row | Sample B (Probe) Signal | log2 (Sample B/Sample A) | Binder
13 | 961 fluorescence intensity units | 4.86 | Ac-LHLRYSQT
14 | 740 fluorescence intensity units | 4.97 | Ac-IKQNYNNS
15 | 9740 fluorescence intensity units | 12 | Ac-NSLLQHLL
16 | 1670 fluorescence intensity units | 6.34 | Ac-NSLRSHLL
17 | 3240 fluorescence intensity units | 6.08 | Ac-NSLRQHLL

target: T1, native human ESRRG protein …; assay: peptide microarray, Iteration 2; bound ESRRG detected with fluorescent anti-ESRRG mAb
Description: as §1
Iterative sequence expansion and arraying of 10 highest binding ligands to ESRRG from Iteration 1 was carried out and the new peptide sequences were synthesized on an array and screened against the protein, as described above. In this step, the central 2 amino acids (core) in peptide sequences were maintained unchanged while outlying amino acids (2, 3, 6, and 7) were permuted (using Tier 1 and Tier 3 substitutions) in a ‘cipher’ or ‘combination’ lock approach.

Row | Binder | Sample B (Probe) Signal | log2 (Sample B/Sample A)
18 | Ac-DRSYPRHT | 271 fluorescence intensity units | 1.98
19 | Ac-HFKLKQGG | 3110 fluorescence intensity units | 2.28
20 | Ac-FFNFSLPA | 1040 fluorescence intensity units | 2.66
21 | Ac-ALNFSLNW | 662 fluorescence intensity units | 2.12
22 | Ac-HLKLKQEN | 1750 fluorescence intensity units | 3.25
23 | Ac-HRSYPRVY | 2450 fluorescence intensity units | 2.31
24 | Ac-HYKLKQHE | 1300 fluorescence intensity units | 2.97
25 | Ac-EESYPRDK | 554 fluorescence intensity units | 2.19
26 | Ac-FWNMYLNP | 775 fluorescence intensity units | 2.29
27 | Ac-AFNMYLDE | 440 fluorescence intensity units | 1.93
28 | Ac-HNSYPRNE | 802 fluorescence intensity units | 2.48
29 | Ac-FVNFSLGI | 900 fluorescence intensity units | 1.92
30 | Ac-FFKGHFKF | 5440 fluorescence intensity units | 3.32
31 | Ac-HNNYLLNN | 964 fluorescence intensity units | 2.34
32 | Ac-HNNFSLEP | 441 fluorescence intensity units | 2.03
33 | Ac-AHNYLLEH | 619 fluorescence intensity units | 2.42
34 | Ac-GKSYPRHR | 3050 fluorescence intensity units | 2.46

Next, values leading:

Row | Sample B (Probe) Signal | log2 (Sample B/Sample A) | Binder
35 | 1010 fluorescence intensity units | 2.08 | Ac-IFLLQQDN
36 | 3420 fluorescence intensity units | 2.23 | Ac-NNSYPRHR
37 | 2780 fluorescence intensity units | 3.32 | Ac-LFKLKQDG
38 | 895 fluorescence intensity units | 2.01 | Ac-WLLLKHGL
39 | 746 fluorescence intensity units | 2.02 | Ac-MYKLKQDN
40 | 1250 fluorescence intensity units | 2.82 | Ac-LILLQQLD
41 | 2610 fluorescence intensity units | 2.07 | Ac-WRSYPRRA
42 | 1310 fluorescence intensity units | 2.45 | Ac-YHNYLLHP
43 | 1860 fluorescence intensity units | 2.34 | Ac-LFKLKQND
44 | 6980 fluorescence intensity units | 2.2 | Ac-PFKLKQGN
45 | 998 fluorescence intensity units | 1.94 | Ac-PGKGHFPI
46 | 1340 fluorescence intensity units | 2.76 | Ac-PWKLKQDP
47 | 794 fluorescence intensity units | 1.97 | Ac-YFLLQQGP
48 | 1230 fluorescence intensity units | 2.56 | Ac-WGKLKQGE
49 | 1200 fluorescence intensity units | 2.05 | Ac-RLLHYGSY
50 | 2200 fluorescence intensity units | 2.91 | Ac-WNSYPRND
51 | 1660 fluorescence intensity units | 1.9 | Ac-RRSYPRGR
